{
  "source": "patent US20040121956A1",
  "about": "(PHARMACIA AND UPJOHN, published 2004)",
  "key": {"DmGPCR6a (M811490)": {"target": "T1, DmGPCR6a (M811490) (Drosophila melanogaster, UniProt P25931 1-464)", "T1 sequence (looked up)": "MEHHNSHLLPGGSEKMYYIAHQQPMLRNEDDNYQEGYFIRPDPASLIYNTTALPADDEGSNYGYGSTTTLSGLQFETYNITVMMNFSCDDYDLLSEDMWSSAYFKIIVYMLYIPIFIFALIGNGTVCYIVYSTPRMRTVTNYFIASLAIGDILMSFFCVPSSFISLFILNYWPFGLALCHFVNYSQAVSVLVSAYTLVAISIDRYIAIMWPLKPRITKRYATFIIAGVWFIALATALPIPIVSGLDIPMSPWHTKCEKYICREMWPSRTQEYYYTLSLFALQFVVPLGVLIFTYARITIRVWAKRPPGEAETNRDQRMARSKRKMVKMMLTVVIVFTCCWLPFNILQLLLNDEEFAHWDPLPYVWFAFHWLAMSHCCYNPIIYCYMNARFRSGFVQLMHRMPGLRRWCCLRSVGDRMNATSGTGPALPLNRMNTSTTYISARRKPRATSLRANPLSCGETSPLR", "assay": "cell-based or functional assay"}, "DmGPCR1 (PnuFlyPep34651)": {"target": "T2, DmGPCR1 (PnuFlyPep34651) (Drosophila melanogaster)", "T2 chain": "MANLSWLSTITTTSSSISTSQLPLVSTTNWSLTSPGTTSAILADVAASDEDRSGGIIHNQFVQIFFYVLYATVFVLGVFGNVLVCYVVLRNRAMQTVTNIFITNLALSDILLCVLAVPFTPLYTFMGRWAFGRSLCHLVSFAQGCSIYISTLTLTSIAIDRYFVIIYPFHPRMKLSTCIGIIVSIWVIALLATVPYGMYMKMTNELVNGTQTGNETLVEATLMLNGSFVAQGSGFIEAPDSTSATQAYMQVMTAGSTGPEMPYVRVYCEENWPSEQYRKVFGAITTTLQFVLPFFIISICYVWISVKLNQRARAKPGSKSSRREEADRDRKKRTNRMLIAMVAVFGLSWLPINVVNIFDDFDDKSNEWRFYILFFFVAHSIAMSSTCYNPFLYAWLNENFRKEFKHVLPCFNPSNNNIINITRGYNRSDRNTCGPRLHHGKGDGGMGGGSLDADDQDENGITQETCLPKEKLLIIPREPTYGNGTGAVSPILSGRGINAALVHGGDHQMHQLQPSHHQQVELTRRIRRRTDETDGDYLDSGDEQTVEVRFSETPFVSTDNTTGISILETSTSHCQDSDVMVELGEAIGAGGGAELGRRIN", "assay": "cell-based or functional assay"}},
  "note": "Where no end group is shown, it is not given here.",
  "data": [
    {"binder": "FLFQPQRF-NH2", "note": "[human NPFF (FLFQPQRF-NH2)]", "values": [
      {"measurement": "GTPγS binding, fold increase, 5 µM NPFF", "setting": "DmGPCR6a (M811490)", "value": 4, "unit": "fold"}
    ]},
    {"binder": "ARGPQLRLRF-NH2", "note": "[ARGPQLRLRF-NH2]", "values": [
      {"measurement": "EC50, FLIPR assay", "setting": "DmGPCR1 (PnuFlyPep34651)", "value": "100 to 200", "unit": "nM"}
    ]}
  ]
}
